Data: patent US20190119388A1 (GREEN CROSS, published 2019)
Values belong to the molecule of their own block, whether it stands above or below them.

What was measured:
Experiment in all cases: cell-based or functional assay
[1] = molecular target: epidermal growth factor receptor (EGFR) on gastric cancer cell lines NCI-N87, AGS and NUGC3 (UniProt P00533)
[2] = molecular target: T1, epidermal growth factor receptor (EGFR) on gastric cancer cell lines NCI-N87, AGS and NUGC3 (UniProt P00533 25-1210, limits assumed)
[3] = molecular target: T1, epidermal growth factor receptor (EGFR) …; remark: listed apart in the source
[4] = molecular target: T1, epidermal growth factor receptor (EGFR) …; remark: listed apart in the source
[5] = molecular target: T1, epidermal growth factor receptor (EGFR) …; remark: listed apart in the source
[6] = molecular target: T1, epidermal growth factor receptor (EGFR) …; remark: listed apart in the source
[7] = molecular target: T1, epidermal growth factor receptor (EGFR) …; remark: listed apart in the source

increase of cell invasion (NUGC3, AREG 200 ng/ml) [1]: 1.3 fold | increase of cell invasion (NUGC3, AREG 500 ng/ml) [1]: 1.5 fold
Molecule: AREG (amphiregulin) (from UniProt P15514 101-198) (ligand)

invaded cells relative to HB-EGF alone, % of OD (AGS, HB-EGF 20 ng/ml, antibody 1 µg/ml), Average (%) [2]: 49.6% | invaded cells relative to HB-EGF alone, % of OD (AGS, HB-EGF 20 ng/ml, antibody 1 µg/ml), set 1-1 [2]: 50.6% | invaded cells relative to HB-EGF alone, % of OD (AGS, HB-EGF 20 ng/ml, antibody 1 µg/ml), set 1-2 [2]: 56.8% | invaded cells relative to HB-EGF alone, % of OD (AGS, HB-EGF 20 ng/ml, antibody 1 µg/ml), set 2-1 [2]: 57.7% | invaded cells relative to HB-EGF alone, % of OD (AGS, HB-EGF 20 ng/ml, antibody 1 µg/ml), set 2-2 [2]: 64.2% | invaded cells relative to HB-EGF alone, % of OD (AGS, HB-EGF 20 ng/ml, antibody 1 µg/ml), set 3-1 [2]: 33.3% | invaded cells relative to HB-EGF alone, % of OD (AGS, HB-EGF 20 ng/ml, antibody 1 µg/ml), set 3-2 [2]: 34.9% | invaded cells relative to TGF-α alone, % of OD (AGS, TGF-α 20 ng/ml, antibody 1 µg/ml), Average (%) [3]: 44.1% | invaded cells relative to TGF-α alone, % of OD (AGS, TGF-α 20 ng/ml, antibody 1 µg/ml), set 1-1 [3]: 45.1% | invaded cells relative to TGF-α alone, % of OD (AGS, TGF-α 20 ng/ml, antibody 1 µg/ml), set 1-2 [3]: 41.6% | invaded cells relative to TGF-α alone, % of OD (AGS, TGF-α 20 ng/ml, antibody 1 µg/ml), set 2-1 [3]: 31.2% | invaded cells relative to TGF-α alone, % of OD (AGS, TGF-α 20 ng/ml, antibody 1 µg/ml), set 2-2 [3]: 33.8% | invaded cells relative to TGF-α alone, % of OD (AGS, TGF-α 20 ng/ml, antibody 1 µg/ml), set 3-1 [3]: 57.9% | invaded cells relative to TGF-α alone, % of OD (AGS, TGF-α 20 ng/ml, antibody 1 µg/ml), set 3-2 [3]: 54.8% | invaded cells relative to AREG alone, % of OD (AGS, AREG 1,000 ng/ml, antibody 1 µg/ml), Average (%) [4]: 55.4% | invaded cells relative to AREG alone, % of OD (AGS, AREG 1,000 ng/ml, antibody 1 µg/ml), set 1-1 [4]: 55.3% | invaded cells relative to AREG alone, % of OD (AGS, AREG 1,000 ng/ml, antibody 1 µg/ml), set 1-2 [4]: 61.3% | invaded cells relative to AREG alone, % of OD (AGS, AREG 1,000 ng/ml, antibody 1 µg/ml), set 2-1 [4]: 51.8% | invaded cells relative to AREG alone, % of OD (AGS, AREG 1,000 ng/ml, antibody 1 µg/ml), set 2-2 [4]: 53.1% | invaded cells relative to HB-EGF alone, % of OD (NUGC3, HB-EGF 50 ng/ml, antibody 1 µg/ml), Average (%) [5]: 39.2% | invaded cells relative to HB-EGF alone, % of OD (NUGC3, HB-EGF 50 ng/ml, antibody 1 µg/ml), set 1-1 [5]: 18.8% | invaded cells relative to HB-EGF alone, % of OD (NUGC3, HB-EGF 50 ng/ml, antibody 1 µg/ml), set 1-2 [5]: 21% | invaded cells relative to HB-EGF alone, % of OD (NUGC3, HB-EGF 50 ng/ml, antibody 1 µg/ml), set 2-1 [5]: 57.7% | invaded cells relative to HB-EGF alone, % of OD (NUGC3, HB-EGF 50 ng/ml, antibody 1 µg/ml), set 2-2 [5]: 64.2% | invaded cells relative to HB-EGF alone, % of OD (NUGC3, HB-EGF 50 ng/ml, antibody 1 µg/ml), set 3-1 [5]: 41.7% | invaded cells relative to HB-EGF alone, % of OD (NUGC3, HB-EGF 50 ng/ml, antibody 1 µg/ml), set 3-2 [5]: 31.9% | invaded cells relative to TGF-α alone, % of OD (NUGC3, TGF-α 50 ng/ml, antibody 1 µg/ml), Average (%) [6]: 32.5% | invaded cells relative to TGF-α alone, % of OD (NUGC3, TGF-α 50 ng/ml, antibody 1 µg/ml), set 1-1 [6]: 31.5% | invaded cells relative to TGF-α alone, % of OD (NUGC3, TGF-α 50 ng/ml, antibody 1 µg/ml), set 1-2 [6]: 27.3% | invaded cells relative to TGF-α alone, % of OD (NUGC3, TGF-α 50 ng/ml, antibody 1 µg/ml), set 2-1 [6]: 31.4% | invaded cells relative to TGF-α alone, % of OD (NUGC3, TGF-α 50 ng/ml, antibody 1 µg/ml), set 2-2 [6]: 30% | invaded cells relative to TGF-α alone, % of OD (NUGC3, TGF-α 50 ng/ml, antibody 1 µg/ml), set 3-1 [6]: 36.4% | invaded cells relative to TGF-α alone, % of OD (NUGC3, TGF-α 50 ng/ml, antibody 1 µg/ml), set 3-2 [6]: 38.3% | invaded cells relative to AREG alone, % of OD (NUGC3, AREG 500 ng/ml, antibody 1 µg/ml), Average (%) [7]: 54.8% | invaded cells relative to AREG alone, % of OD (NUGC3, AREG 500 ng/ml, antibody 1 µg/ml), set 1-1 [7]: 40.2% | invaded cells relative to AREG alone, % of OD (NUGC3, AREG 500 ng/ml, antibody 1 µg/ml), set 1-2 [7]: 50.7% | invaded cells relative to AREG alone, % of OD (NUGC3, AREG 500 ng/ml, antibody 1 µg/ml), set 2-1 [7]: 59.8% | invaded cells relative to AREG alone, % of OD (NUGC3, AREG 500 ng/ml, antibody 1 µg/ml), set 2-2 [7]: 59.6% | invaded cells relative to AREG alone, % of OD (NUGC3, AREG 500 ng/ml, antibody 1 µg/ml), set 3-1 [7]: 62.4% | invaded cells relative to AREG alone, % of OD (NUGC3, AREG 500 ng/ml, antibody 1 µg/ml), set 3-2 [7]: 56.1%
B1: GC1118 (antibody, human IgG1, kappa, V domains shown)
VH: EVQLVESGGGVVQPGGSLRLSCAASGFTFSDYDMSWIRQAPGKGLEWVSGILGGSERSYYRDSVKGRFTISRDNSRKTLYLQMNSLRAEDTAVYYCARHGSPGYTLYAWDYWGQGTTVTVSS
VL: DIVMTQTPLSLPVTPGEPASISCRSNQDLTHSNGNTYLEWYLQKPGQSPRLLIYKVSNRFSGVPDRFSGSGAGTDFTLRISRVEAEDVGVYYCMQGTHWPWTFGQGTKVDIKR

More lines, now with the values behind:

Molecule: TGF-α (transforming growth factor-α) (from UniProt P01135 40-89) (ligand)
increase of cell invasion (NUGC3, TGF-α 10 ng/ml) [1]: 1.7 fold | increase of cell invasion (NUGC3, TGF-α 20 ng/ml) [1]: 1.9 fold | increase of cell invasion (NUGC3, TGF-α 50 ng/ml) [1]: 1.9 fold | increase of invasion against control (AGS, TGF-α 10 ng/ml) [1]: 1.8 fold | increase of invasion against control (AGS, TGF-α 20 ng/ml) [1]: 1.8 fold | increase of invasion against control (AGS, TGF-α 50 ng/ml) [1]: 1.9 fold

Molecule: HB-EGF (heparin binding-EGF-like growth factor) (from UniProt Q99075 63-148) (ligand)
increase of cell invasion (NUGC3, HB-EGF 10 ng/ml) [1]: 2.3 fold | increase of cell invasion (NUGC3, HB-EGF 20 ng/ml) [1]: 3.5 fold | increase of cell invasion (NUGC3, HB-EGF 50 ng/ml) [1]: 4.8 fold | increase of invasion against control (AGS, HB-EGF 10 ng/ml) [1]: 4.1 fold | increase of invasion against control (AGS, HB-EGF 20 ng/ml) [1]: 4.5 fold | increase of invasion against control (AGS, HB-EGF 50 ng/ml) [1]: 3.9 fold
